# Reference: patent US20140087995A1 (published 2014)
# Numbered stars: 1 amine (or outer) side, 2 acyl side, 3 side chain; on linkers, the order of the positions; unused ones are H or OH. Bridge positions count the residues as written; N and C are the ends. Square brackets hold non-standard residues; d marks the D form. Side chains are listed from the residue outwards. Ends that are not written are not given here. * marks the point of attachment. C20 diacid = O=C(O)CCCCCCCCCCCCCCCCCCC(=O)*; γGlu = O=C(O)[C@H](CCC(=O)[*:2])N[*:1]
# T1: rat calcitonin receptor (rat, UniProt P32214 25-516)
# T1 construct: whole, on cells; In cell membranes prepared from transiently transfected BHK tk'ts 13 cells (Assay VIII); also called rCTR; rat calcitonin (a) receptor
# T1 sequence (looked up): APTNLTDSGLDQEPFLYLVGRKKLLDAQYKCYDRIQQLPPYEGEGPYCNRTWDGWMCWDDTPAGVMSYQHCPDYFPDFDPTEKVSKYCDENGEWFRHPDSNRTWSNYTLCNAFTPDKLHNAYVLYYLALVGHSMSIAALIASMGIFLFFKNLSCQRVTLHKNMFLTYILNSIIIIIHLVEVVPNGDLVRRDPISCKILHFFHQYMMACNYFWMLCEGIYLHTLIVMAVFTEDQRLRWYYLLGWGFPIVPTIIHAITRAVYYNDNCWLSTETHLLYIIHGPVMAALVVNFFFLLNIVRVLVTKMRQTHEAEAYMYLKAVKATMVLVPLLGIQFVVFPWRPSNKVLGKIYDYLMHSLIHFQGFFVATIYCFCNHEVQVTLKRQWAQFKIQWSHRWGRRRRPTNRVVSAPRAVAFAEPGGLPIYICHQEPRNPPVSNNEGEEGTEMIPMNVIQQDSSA
# T2: rat amylin receptor (rat calcitonin receptor + rat RAMP 3) (rat, UniProt P32214 25-516; Q9JJ73 23-147)
# T2 construct: whole, on cells; Receptor complex in cell membranes prepared from transiently transfected BHK tk'ts 13 cells (Assay VI); also called rAmylin-R; rat amylin 3(a) receptor
# T2 sequence (looked up) 1: T1 sequence (looked up)
# T2 sequence (looked up) 2: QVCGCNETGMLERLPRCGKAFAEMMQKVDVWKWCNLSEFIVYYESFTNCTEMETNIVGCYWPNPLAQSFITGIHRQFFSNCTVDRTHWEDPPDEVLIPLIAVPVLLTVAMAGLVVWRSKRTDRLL
# T3: human amylin 3(a) receptor (human calcitonin receptor co-expressed with RAMP-3) (human, UniProt P30988 25-474; O60896 24-148, limits assumed)
# T3 sequence (looked up) 1: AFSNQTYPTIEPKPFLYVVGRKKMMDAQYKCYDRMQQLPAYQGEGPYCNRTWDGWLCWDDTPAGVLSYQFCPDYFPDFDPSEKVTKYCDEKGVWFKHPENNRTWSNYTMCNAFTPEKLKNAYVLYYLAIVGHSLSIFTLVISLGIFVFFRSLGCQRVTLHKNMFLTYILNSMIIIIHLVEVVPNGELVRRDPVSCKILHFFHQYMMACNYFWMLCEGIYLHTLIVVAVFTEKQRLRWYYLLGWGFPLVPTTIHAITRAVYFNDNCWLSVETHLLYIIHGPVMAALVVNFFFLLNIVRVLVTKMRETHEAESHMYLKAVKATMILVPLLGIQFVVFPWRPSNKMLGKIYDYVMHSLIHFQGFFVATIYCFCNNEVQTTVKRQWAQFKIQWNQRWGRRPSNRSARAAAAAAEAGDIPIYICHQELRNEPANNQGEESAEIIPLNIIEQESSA
# T3 sequence (looked up) 2: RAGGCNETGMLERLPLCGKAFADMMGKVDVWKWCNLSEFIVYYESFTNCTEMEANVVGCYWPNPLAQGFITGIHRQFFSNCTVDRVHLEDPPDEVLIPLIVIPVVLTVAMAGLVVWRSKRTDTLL
# T4: human calcitonin receptor (human, UniProt P30988 25-474)
# T4 sequence (looked up): T3 sequence (looked up) 1
# B1: N^ε1-[(4S)-4-carboxy-4-[[(4S)-4-carboxy-4-(19-carboxynonadecanoylamino)butanoyl]amino]butanoyl]-[D-Asp14,Arg17,Pro21,Pro27,Arg35]-h-amylin (peptide)
# peptide: K([γGlu-γGlu-C20 diacid])CNTATCATQRLA[dD]FLRHSSPNFGAIPSSTNVGSRTY-NH2
# modifications: disulfide 2-7; N-terminus assumed
# SMILES: CC[C@H](C)[C@H](NC(=O)[C@H](C)NC(=O)CNC(=O)[C@H](Cc1ccccc1)NC(=O)[C@H](CC(N)=O)NC(=O)[C@@H]1CCCN1C(=O)[C@H](CO)NC(=O)[C@H](CO)NC(=O)[C@H](Cc1c[nH]cn1)NC(=O)[C@H](CCCNC(=N)N)NC(=O)[C@H](CC(C)C)NC(=O)[C@H](Cc1ccccc1)NC(=O)[C@@H](CC(=O)O)NC(=O)[C@H](C)NC(=O)[C@H](CC(C)C)NC(=O)[C@H](CCCNC(=N)N)NC(=O)[C@H](CCC(N)=O)NC(=O)[C@@H](NC(=O)[C@H](C)NC(=O)[C@@H]1CSSC[C@H](NC(=O)[C@@H](N)CCCCNC(=O)CC[C@H](NC(=O)CC[C@H](NC(=O)CCCCCCCCCCCCCCCCCCC(=O)O)C(=O)O)C(=O)O)C(=O)N[C@@H](CC(N)=O)C(=O)N[C@@H]([C@@H](C)O)C(=O)N[C@@H](C)C(=O)N[C@@H]([C@@H](C)O)C(=O)N1)[C@@H](C)O)C(=O)N1CCC[C@H]1C(=O)N[C@@H](CO)C(=O)N[C@@H](CO)C(=O)N[C@H](C(=O)N[C@@H](CC(N)=O)C(=O)N[C@H](C(=O)NCC(=O)N[C@@H](CO)C(=O)N[C@@H](CCCNC(=N)N)C(=O)N[C@H](C(=O)N[C@@H](Cc1ccc(O)cc1)C(N)=O)[C@@H](C)O)C(C)C)[C@@H](C)O
# notes: residue 14 is D-aspartic acid (printed 14d)
# B2: N^ε1-[(4S)-4-carboxy-4-(19-carboxynonadecanoylamino)butanoyl]-[Glu14,Arg17,Pro21,Pro27,Arg35]-h-amylin (peptide)
# peptide: K([γGlu-C20 diacid])CNTATCATQRLAEFLRHSSPNFGAIPSSTNVGSRTY-NH2
# modifications: disulfide 2-7; N-terminus assumed
# SMILES: CC[C@H](C)[C@H](NC(=O)[C@H](C)NC(=O)CNC(=O)[C@H](Cc1ccccc1)NC(=O)[C@H](CC(N)=O)NC(=O)[C@@H]1CCCN1C(=O)[C@H](CO)NC(=O)[C@H](CO)NC(=O)[C@H](Cc1c[nH]cn1)NC(=O)[C@H](CCCNC(=N)N)NC(=O)[C@H](CC(C)C)NC(=O)[C@H](Cc1ccccc1)NC(=O)[C@H](CCC(=O)O)NC(=O)[C@H](C)NC(=O)[C@H](CC(C)C)NC(=O)[C@H](CCCNC(=N)N)NC(=O)[C@H](CCC(N)=O)NC(=O)[C@@H](NC(=O)[C@H](C)NC(=O)[C@@H]1CSSC[C@H](NC(=O)[C@@H](N)CCCCNC(=O)CC[C@H](NC(=O)CCCCCCCCCCCCCCCCCCC(=O)O)C(=O)O)C(=O)N[C@@H](CC(N)=O)C(=O)N[C@@H]([C@@H](C)O)C(=O)N[C@@H](C)C(=O)N[C@@H]([C@@H](C)O)C(=O)N1)[C@@H](C)O)C(=O)N1CCC[C@H]1C(=O)N[C@@H](CO)C(=O)N[C@@H](CO)C(=O)N[C@H](C(=O)N[C@@H](CC(N)=O)C(=O)N[C@H](C(=O)NCC(=O)N[C@@H](CO)C(=O)N[C@@H](CCCNC(=N)N)C(=O)N[C@H](C(=O)N[C@@H](Cc1ccc(O)cc1)C(N)=O)[C@@H](C)O)C(C)C)[C@@H](C)O
# notes: h-amylin derivative; disulfide bridge and C-terminal amide as told for human amylin; also called compound 51
# B3: N^-1-[(4S)-4-carboxy-4-(19-carboxynonadecanoylamino)butanoyl]-Gly[Arg1,Arg17,Pro21,Pro27,His35]-h-amylin (peptide)
# peptide: {C20 diacid-γGlu}-GRCNTATCATQRLANFLRHSSPNFGAIPSSTNVGSHTY-NH2
# modifications: disulfide 3-8
# SMILES: CC[C@H](C)[C@H](NC(=O)[C@H](C)NC(=O)CNC(=O)[C@H](Cc1ccccc1)NC(=O)[C@H](CC(N)=O)NC(=O)[C@@H]1CCCN1C(=O)[C@H](CO)NC(=O)[C@H](CO)NC(=O)[C@H](Cc1c[nH]cn1)NC(=O)[C@H](CCCNC(=N)N)NC(=O)[C@H](CC(C)C)NC(=O)[C@H](Cc1ccccc1)NC(=O)[C@H](CC(N)=O)NC(=O)[C@H](C)NC(=O)[C@H](CC(C)C)NC(=O)[C@H](CCCNC(=N)N)NC(=O)[C@H](CCC(N)=O)NC(=O)[C@@H](NC(=O)[C@H](C)NC(=O)[C@@H]1CSSC[C@H](NC(=O)[C@H](CCCNC(=N)N)NC(=O)CNC(=O)CC[C@H](NC(=O)CCCCCCCCCCCCCCCCCCC(=O)O)C(=O)O)C(=O)N[C@@H](CC(N)=O)C(=O)N[C@@H]([C@@H](C)O)C(=O)N[C@@H](C)C(=O)N[C@@H]([C@@H](C)O)C(=O)N1)[C@@H](C)O)C(=O)N1CCC[C@H]1C(=O)N[C@@H](CO)C(=O)N[C@@H](CO)C(=O)N[C@H](C(=O)N[C@@H](CC(N)=O)C(=O)N[C@H](C(=O)NCC(=O)N[C@@H](CO)C(=O)N[C@@H](Cc1c[nH]cn1)C(=O)N[C@H](C(=O)N[C@@H](Cc1ccc(O)cc1)C(N)=O)[C@@H](C)O)C(C)C)[C@@H](C)O
# notes: h-amylin derivative, N-terminally extended by one residue; disulfide bridge and C-terminal amide as told for human amylin; also called compound 47
# Key:
# rat calcitonin receptor = target: T1, rat calcitonin receptor; test: SPA competition binding, displacement of 125I-Calcitonin from membranes of BHK tk'ts 13 cells with rat calcitonin receptor (Assay VIII)
# [1] = target: T2, rat amylin receptor (rat calcitonin …); test: SPA competition binding, displacement of 125I-rat amylin from membranes of BHK tk'ts 13 cells with rat calcitonin receptor + rat RAMP 3 (Assay VI)
# Method: The binding assay was performed using scintillation proximity assay (SPA) beads (RPNQ0001) from PerkinElmer and cell membranes from the Amylin 3(a)/CRE-luc cells (as described in Assay (II)) were used. Membranes were prepared in the following way; the cells were rinsed with PBS and incubated with Versene for approximately 5 min before harvesting. The cells were flushed with PBS and the cell-suspension was centrifuged for 5 min at 1000 rpm. Cells were homogenized (ultrathurrax) in a buffer containing 20 mM Na-HEPES and 10 mM EDTA (pH 7.4) and centrifuged at 20.000 rpm for 15 min. The resulting pellet was resuspended, homogenized and centrifuged (20.000 rpm, 15 min) in a buffer containing 20 mM Na-HEPES and 0.1 mM EDTA (pH 7.4, buffer 2). The resulting pellet was resuspended in buffer 2 and protein concentration was measured (BCA protein Assay, Pierce). The homogenate was kept cold during the whole procedure. The membranes were kept at −80° C. until use. The assay was performed in a 384 well Optiplate (PerkinElmer) in a total volume of 40 ul. Membranes were mixed with SPA beads. Final concentration of membranes 35 ng/μL final and SPA beads was 0.05 mg/well. Test-compounds were dissolved in DMSO and further diluted in assay buffer (50 mM Hepes, pH 7.4, 1 mM CaCl2, 5 mM MgCl₂, 0.1% OA and 0.02% Tween20). […] The final mixture was incubated with shaking at 400 rpm for 120 min at 25° C. prior to centrifugation (1500 rpm, 10 min). Samples were analyzed on TopCounter™ (Packard). The IC₅₀ was calculated using (one site binding competition analysis) GraphPad Prism5 as a measure of receptor affinity.
# Cells were grown in DMEM with 10% FBS and 1% Pen/Strep. Approximately 48 hours after transfection, the cells were harvested and membranes were prepared.
# [2] = target: T3, human amylin 3(a) receptor (human …); test: cell-based or functional assay
# [3] = target: T4, human calcitonin receptor; test: cell-based or functional assay
Binder,IC50 (rat calcitonin receptor),IC50 [1],Ratio hCT/hAmylin funct. [2],hCTR funct. EC50 [3]
B1,536 nM,1.69 nM,,
B2,,,14,5.22 nM
B3,,,6,1.32 nM
